What was measured:
Ylehd = biological target: T1, Ylehd (Yarrowia lipolytica, UniProt Q6C598); experiment: spectrophotometric residual epoxide assay, […] nm; type: biochemical; details: epoxide hydrolase activity; 50 mM Tris-sulphate, pH 8.0, 30 °C
T1 construct: gene YALI0_E19899g; full-length ORF in pET28a, His-tagged, E. coli BL21AI; 352 amino acids; 43 kDa monomer; likely dimer at pH 8.0 (EH), tetramer at pH 4.5 (HLD)

[1] = biological target: Ylehd (epoxide hydrolase with promiscuous haloalkane dehalogenase activity from Yarrowia lipolytica NCIM 3589) (Yarrowia lipolytica NCIM 3589); experiment: SEC; Superdex S200 10/300GL equilibrated with 50 mM Tris-sulphate buffer pH 8.0; mass from calibration with proteins of known molecular mass
[2] = biological target: Ylehd (epoxide hydrolase with promiscuous haloalkane dehalogenase activity from Yarrowia lipolytica NCIM 3589) (Yarrowia lipolytica NCIM 3589); experiment: SEC; Superdex S200 10/300GL equilibrated with 50 mM sodium acetate buffer pH 4.5; mass from calibration with proteins of known molecular mass

Molecule | Km (Ylehd) | stoichiometry N [1] | stoichiometry N [2]
CCCCCCC1CO1 (stereo not drawn) [1,2-Epoxyoctane] | 500 ± 45 µM |  | 
Ylehd (epoxide hydrolase with promiscuous haloalkane dehalogenase activity from Yarrowia lipolytica NCIM 3589) (enzyme) |  | 2 | 4

Reference: publication PMC5605520, “Ylehd, an epoxide hydrolase with promiscuous haloalkane dehalogenase activity from tropical marine yeast Yarrowia lipolytica is induced upon xenobiotic stress” (Scientific Reports, 2017)
